Assay results published in paper PMC12706091.

Molecular target: recombinant Flag-DIC1B (rFlag-DIC1B)
Experiment: pull-down; 2 μg Flag-DIC1B on anti-Flag magnetic beads, 2 μg each of Myc-ANXA7 and TIA1 added; NP40 lysis buffer with 0.5 M L-arginine, 4 °C; with or without 1 mM CaCl2; western blot

fold change of TIA1 pulled down with DIC1B, with Myc-ANXA7 against without: 4 fold
B1: recombinant TIA1 (rTIA1) (natural protein)
chain: MEDEMPKTLYVGNLSRDVTEALILQLFSQIGPCKNCKMIMDTAGNDPYCFVEFHEHRHAAAALAAMNGRKIMGKEVKVNWATTPSSQKKDTSSSTVVSTQRSQDHFHVFVGDLSPEITTEDIKAAFAPFGRISDARVVKDMATGKSKGYGFVSFFNKWDAENAIQQMGGQWLGGRQIRTNWATRKPPAPKSTYESNTKQLSYDEVVNQSSPSNCTVYCGGVTSGLTEQLMRQTFSPFGQIMEIRVFPDKGYSFVRFNSHESAAHAIVSVNGTTIEGHVVKCYWGKETLDMINPVQQQNQIGYPQPYGQWGQWYGNAQQIGQYMPNGWQVPAYGMYGQAWNQQGFNQTQSSAPWMGPNYGVQPPQGQNGSMLPNQPSGYRVAGYETQ
